# Experimental data taken from patent US5576294A, “Human Kunitz-type protease inhibitor variant” (Novo Nordisk A/S, priority 1992, dated 1996).
# pKi: −log10 of the molar value.
# How the values were obtained:
# plasma kallikrein [1] = target: T1, plasma kallikrein (Homo sapiens, UniProt P03952); conditions: cf. WO 89/10374; cited from earlier work
# Target sequence in this assay (P03952 20-638, species assumed): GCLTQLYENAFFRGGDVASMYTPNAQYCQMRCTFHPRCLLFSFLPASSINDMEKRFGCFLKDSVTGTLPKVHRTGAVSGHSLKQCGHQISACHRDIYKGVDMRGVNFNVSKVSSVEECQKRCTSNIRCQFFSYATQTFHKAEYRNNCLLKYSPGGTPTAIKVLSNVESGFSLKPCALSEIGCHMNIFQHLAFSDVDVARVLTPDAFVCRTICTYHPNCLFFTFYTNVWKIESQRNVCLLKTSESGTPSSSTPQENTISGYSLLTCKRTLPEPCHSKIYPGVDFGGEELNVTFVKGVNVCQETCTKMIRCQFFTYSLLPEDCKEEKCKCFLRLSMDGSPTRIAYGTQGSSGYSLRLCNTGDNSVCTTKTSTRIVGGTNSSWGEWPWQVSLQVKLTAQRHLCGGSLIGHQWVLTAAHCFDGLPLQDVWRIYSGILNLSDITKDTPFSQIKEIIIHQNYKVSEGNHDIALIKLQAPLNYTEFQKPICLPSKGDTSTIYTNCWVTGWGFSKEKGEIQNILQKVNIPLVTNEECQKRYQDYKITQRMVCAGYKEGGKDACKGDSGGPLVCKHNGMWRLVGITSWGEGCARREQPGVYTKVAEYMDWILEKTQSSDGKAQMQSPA
# plasma kallikrein [2] = target: T1, plasma kallikrein; assay: Inhibition of serine proteinases: plasma kallikrein; assay type: biochemical; conditions: Example 3; 30 min incubation, FIG. 3
# Method: (§1) KFN 1593 was purified from yeast culture medium as described in example 1. The concentration of KFN 1593 was determined using 1% E280 nm =8.3 and Mw =6500. Porcine trypsin was from Novo Nordisk (Bagsv.ae butted.rd, Denmark), bovine chymotrypsin (TLCK treated) and porcine pancreatic kallikrein was from Sigma Chemical Co (St. Louis, Mo., U.S.A.), human plasmin and human plasma kallikrein was from Kabi (Stockholm, Sweden).
# (§2) Human neutrophil elastase and cathepsin G was purified from extracts of PMNs according to the method described by Baugh and Travis (Biochemistry 15 (1976) 836-843). Peptidyl nitroanilide substrates, S2251, S2586, S2266, S2302 were from Kabi (Stockholm, Sweden). M4765 and S7388 was from Sigma Chemical Co (St. Louis, Mo., U.S.A.) and FXa-1 was from NycoMed (Oslo, Norway).
# (§3) Serine proteinases were incubated with various concentrations of KFN 1593 for 30 min. Substrate was then added and residual proteinase activity was measured at 405 nm.
# (§4) The three TFPI (domain II) variants were purified from yeast culture medium. Their concentrations were determined from the absorbance at 214 nm using BPTI as a standard. The final concentration was determined by titration with trypsin. Porcine trypsin and human recombinant proteins, factor VIIa, activated protein C (ACP), and tPA were obtained from Novo Nordisk A/S (Bagsvaerd, Denmark), so was human thrombin. Bovine chymotrypsin and glandular kallikrein were obtained from Sigma Chemical Co. (St. Louis, Mo., U.S.A.). Truncated human recombinant tissue factor was obtained from Corvas (San Diego, Calif., U.S.A.). Human neutrophil cathepsin G was purified from extracts of PMNs according to the method described by Baugh and Travis (Biochemistry 15 (1976) 836-843). Human plasmin was from Kabi (Stockholm, Sweden), uPA was from Serono (Milan, Italy), human factor Xa was a gift from Dr. W. Kisiel (Albuquerque, N.M., U.S.A.), and human plasma kallikrein was a gift from Dr. I Schousboe (Copenhagen, Denmark).
# (§5) Peptidyl nitroanilide substrates, S2251, S2302, S2266, S2586, S2288, S2444, S2366, and S2238 were from Kabi (Stockholm, Sweden). S7388 and M4765 were from Sigma Chemical Co. (St. Louis, Mo., U.S.A.) and FXa-1 was from Nycomed (Oslo, Norway).
# (§6) Serine proteinases were incubated with various concentrations of Kunitz Domain variant for 30 min. Substrate (0.6 mM) was then added and residual proteinase activity was measured at 405 nm.
# Target sequence in this assay (P03952 391-638 limits assumed): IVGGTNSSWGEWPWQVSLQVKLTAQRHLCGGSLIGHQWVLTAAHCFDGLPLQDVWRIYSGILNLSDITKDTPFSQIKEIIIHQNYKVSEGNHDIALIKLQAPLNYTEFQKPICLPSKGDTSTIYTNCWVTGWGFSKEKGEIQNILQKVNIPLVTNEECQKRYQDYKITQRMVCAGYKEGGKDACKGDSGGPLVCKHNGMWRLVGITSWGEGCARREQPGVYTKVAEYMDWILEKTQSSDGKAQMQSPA
# Target sequence in this assay (P03952 20-390 limits assumed): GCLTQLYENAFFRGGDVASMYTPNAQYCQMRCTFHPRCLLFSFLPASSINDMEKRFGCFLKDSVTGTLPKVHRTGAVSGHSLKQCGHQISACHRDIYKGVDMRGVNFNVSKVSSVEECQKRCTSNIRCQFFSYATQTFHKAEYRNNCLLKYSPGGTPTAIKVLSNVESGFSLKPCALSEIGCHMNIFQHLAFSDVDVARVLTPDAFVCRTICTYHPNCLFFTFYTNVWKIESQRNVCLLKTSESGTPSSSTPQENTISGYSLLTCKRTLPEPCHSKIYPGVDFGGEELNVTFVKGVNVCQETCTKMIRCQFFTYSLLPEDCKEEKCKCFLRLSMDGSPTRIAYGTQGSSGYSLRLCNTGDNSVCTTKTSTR
# [3] = target: T2, Human neutrophil cathepsin G (Homo sapiens, UniProt P08311); assay: Inhibition of serine proteinases: neutrophil cathepsin G; assay type: biochemical; conditions: Example 3; 30 min incubation, FIG. 3
# T2 construct: Human neutrophil cathepsin G was purified from extracts of PMNs; from tissue; host or cells: extracts of human polymorphonuclear leukocytes (PMNs), method of Baugh and Travis
# T2 sequence (P08311 21-255): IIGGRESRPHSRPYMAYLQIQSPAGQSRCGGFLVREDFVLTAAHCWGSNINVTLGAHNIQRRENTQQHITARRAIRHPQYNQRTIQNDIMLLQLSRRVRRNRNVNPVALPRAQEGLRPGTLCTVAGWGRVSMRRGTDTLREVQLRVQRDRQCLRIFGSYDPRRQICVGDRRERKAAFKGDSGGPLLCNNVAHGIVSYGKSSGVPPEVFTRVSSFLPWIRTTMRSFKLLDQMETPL
# Method: as §1, §2, §3, §4, §5, §6
# (§7) The four variants were purified from yeast culture medium. Their concentrations were determined from the absorbance at 214 nm using BTPI as a standard. Porcine trypsin was obtained from Novo Nordisk A/S (Bagsvaerd, Denmark, bovine chymotrypsin (TLCK treated) was obtained from Sigma Chemical Co. (St. Louis, Mo., U.S.A.). Truncated human recombinant tissue factor was obtained from Corvas (San Diego, Calif., U.S.A.). Human plasmin was from Kabi (Stockholm, Sweden). Human neutrophil cathepsin G and elastase were purified from extracts of PMNs according to the method described by Baugh and Travis (Biochemistry 15 (1976) 836-843).
# (§8) Peptidyl nitroanilide substrates, S2251, S2586 were from Kabi (Stockholm, Sweden). S7388 and M4765 were from Sigma Chemical Co. (St. Louis, Mo., U.S.A.).
# (§9) Serine proteinases were incubated with various concentrations of the variants for 30 min. Substrate ([…]) was then added and residual proteinase activity was measured at 405 nm.
# Human plasmin = Human plasmin (Homo sapiens, UniProt P00747); assay: Inhibition of serine proteinases: plasmin; assay type: biochemical; parameters: human plasmin and human plasma kallikrein was from Kabi (Stockholm, Sweden); purchased Kabi (Stockholm, Sweden); conditions: Example 3; 30 min incubation, FIG. 2
# Human plasmin, sequence (P00747 581-810 limits assumed): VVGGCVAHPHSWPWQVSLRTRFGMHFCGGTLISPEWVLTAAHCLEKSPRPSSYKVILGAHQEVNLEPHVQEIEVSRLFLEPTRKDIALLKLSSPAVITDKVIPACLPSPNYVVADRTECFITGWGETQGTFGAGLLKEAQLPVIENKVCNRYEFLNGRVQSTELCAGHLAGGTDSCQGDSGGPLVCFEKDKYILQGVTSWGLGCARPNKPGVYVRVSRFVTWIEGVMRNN
# Human plasmin, sequence (P00747 97-580 limits assumed): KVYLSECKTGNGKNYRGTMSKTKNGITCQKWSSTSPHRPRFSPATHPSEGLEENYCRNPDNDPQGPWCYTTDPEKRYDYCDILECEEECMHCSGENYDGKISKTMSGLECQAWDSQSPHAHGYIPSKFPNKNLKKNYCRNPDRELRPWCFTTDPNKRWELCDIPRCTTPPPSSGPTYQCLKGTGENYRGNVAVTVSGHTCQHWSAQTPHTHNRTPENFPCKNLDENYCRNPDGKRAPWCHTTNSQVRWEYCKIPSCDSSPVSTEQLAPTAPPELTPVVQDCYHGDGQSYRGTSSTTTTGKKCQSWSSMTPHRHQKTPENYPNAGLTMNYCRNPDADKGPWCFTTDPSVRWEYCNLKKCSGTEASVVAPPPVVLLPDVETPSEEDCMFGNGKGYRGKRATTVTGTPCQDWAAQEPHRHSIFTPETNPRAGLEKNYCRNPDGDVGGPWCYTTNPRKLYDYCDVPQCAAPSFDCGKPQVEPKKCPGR
# Method: as §1, §2, §3, §4, §5, §6, §7, §8, §9
# human factor Xa = target: T3, human factor Xa (Homo sapiens, UniProt P00742); assay: Inhibition of serine proteinases: Factor Xa; assay type: biochemical; conditions: Example 3; 30 min incubation; read-out: Ki, factor X.
# T3 construct: human factor Xa was a gift from Dr. W. Kisiel; gift from Dr. W. Kisiel (Albuquerque, N.M., U.S.A.)
# T3 sequence (P00742 235-488 limits assumed): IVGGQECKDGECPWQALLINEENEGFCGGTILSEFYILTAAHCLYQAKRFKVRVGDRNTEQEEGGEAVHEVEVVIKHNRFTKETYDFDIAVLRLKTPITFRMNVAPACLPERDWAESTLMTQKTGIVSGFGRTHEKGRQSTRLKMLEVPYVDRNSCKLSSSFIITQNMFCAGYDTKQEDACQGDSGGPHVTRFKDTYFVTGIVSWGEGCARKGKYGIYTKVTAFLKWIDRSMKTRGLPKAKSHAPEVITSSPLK
# T3 sequence (P00742 41-179 limits assumed): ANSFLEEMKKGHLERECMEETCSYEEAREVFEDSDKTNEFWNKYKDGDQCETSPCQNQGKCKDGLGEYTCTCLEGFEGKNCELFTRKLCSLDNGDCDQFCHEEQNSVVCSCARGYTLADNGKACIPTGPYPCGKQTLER
# Method: as §1, §2, §3
# The three TFPI (domain II) variants were purified from yeast culture medium. Their concentrations were determined from the absorbance at 214 nm using BPTI as a standard. The final concentration was determined by titration with trypsin. […]
# as §6
# [4] = target: T4, glandular kallikrein (porcine pancreatic kallikrein) (Sus scrofa, UniProt P00752); assay: Inhibition of serine proteinases: glandular kallikrein; assay type: biochemical; conditions: Example 3; 30 min incubation, FIG. 3
# T4 construct: purchased Sigma Chemical Co (St. Louis, Mo., U.S.A.)
# T4 sequence (P00752 8-246): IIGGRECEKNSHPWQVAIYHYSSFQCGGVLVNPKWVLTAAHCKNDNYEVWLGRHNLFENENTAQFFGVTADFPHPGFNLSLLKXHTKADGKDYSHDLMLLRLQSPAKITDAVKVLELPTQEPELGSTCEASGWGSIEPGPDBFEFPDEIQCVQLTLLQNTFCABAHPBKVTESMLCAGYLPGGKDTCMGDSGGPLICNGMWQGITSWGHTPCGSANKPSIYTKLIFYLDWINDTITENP
# Method: as §1, §2, §3, §4, §5, §6
# [5] = target: T5, Human neutrophil elastase (Homo sapiens, UniProt P08246); assay: Inhibition of serine proteinases: neutrophil elastase; assay type: biochemical; conditions: Example 3; 30 min incubation, FIG. 3
# T5 construct: Human neutrophil elastase and cathepsin G was purified from extracts of PMNs; from tissue; host or cells: extracts of human polymorphonuclear leukocytes (PMNs), method of Baugh and Travis
# T5 sequence (P08246 30-267): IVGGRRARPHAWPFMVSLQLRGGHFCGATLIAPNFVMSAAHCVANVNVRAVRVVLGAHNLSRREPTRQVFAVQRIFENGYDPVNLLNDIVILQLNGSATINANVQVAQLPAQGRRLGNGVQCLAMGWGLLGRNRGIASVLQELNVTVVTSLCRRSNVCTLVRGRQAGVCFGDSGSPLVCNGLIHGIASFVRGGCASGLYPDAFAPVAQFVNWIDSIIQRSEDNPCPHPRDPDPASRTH
# Method: as §1, §2
# Serine proteinases were incubated with various concentrations of KFN 1593 for 30 min. Substrate was then added and residual proteinase activity was measured at 405 nm. […]
# as §7, §8, §9
# collagenase = conditions: Wenzel and Tschesche 1981; cited from earlier work
# granulocyte elastase = target: T6, granulocyte elastase (Homo sapiens, UniProt P08246); conditions: Wenzel and Tschesche 1981; cited from earlier work
# T6 sequence (P08246 30-267): T5 sequence (P08246 30-267)
# [6] = high doses; cardiac surgery including cardiopulmonary bypass operations; cited from earlier work
substance,measurement,setting,value
"aprotinin (3-58, Arg15, Ala17, Ser42)",plasma kallikrein inhibitory effect (in words),plasma kallikrein [1],excellent plasma kallikrein inhibitory effect
"KFN 1593: Unmodified TFPI Kunitz domain II (second Kunitz domain of tissue factor pathway inhibitor), produced from yeast strain KFN-1593 (RFESLEECKKMCTRDNANRIIKTTLQQEKPDFCFLEEDPGICRGYITRYFYNNQTKQC)",inhibition of kallikreins (in words): plasma kallikrein,plasma kallikrein [2],essentially absent
same,inhibition of Cathepsin G (in words),[3],essentially absent
same,inhibition of plasmin (in words),Human plasmin,moderate inhibition
same,pKi,human factor Xa,6.82
same,inhibition of kallikreins (in words): glandular kallikrein,[4],essentially absent
same,inhibition of neutrophil elastase (in words),[5],moderate inhibition
"aprotinin(1-58, Val15)",effect on collagenase (in words),collagenase,inhibitory effect
same,effect on granulocyte elastase (in words),granulocyte elastase,relatively high selectivity
aprotinin,blood loss in connection with cardiac surgery,[6],significantly reduces blood loss
